Reference: the nanobody polyreactivity screen of Harvey et al. (2022)

Test: yeast display, Sf9 membrane polyspecificity reagent, FACS + sequencing; frameworks hold sequencing errors
Procedure, shortened: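 Synthetic nanobody libraries on Saccharomyces cerevisiae BJ5465 were galactose-induced for 36–48 hours, stained 1 hour at 4 °C with 10% biotinylated, detergent-solubilized Sf9 membrane reagent and enriched on streptavidin microbeads. FACS then separated cells into low and high (top ~1%) gates by anti-HA (expression) and streptavidin (reagent binding) fluorescence. Genes were colony-PCR amplified, MiSeq 2 × 250 sequenced and CDR-length filtered. A clone's polyreactivity label is that of its gate of origin.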

Sequence | polyreactivity (PSR sort gate)
QVQLVESGGGLVQAGGSLRLSCAASGFTFRYYAMGWSRQAPGKERELVARITSGGSTNYADSVKGRFTISRDNAKNTVYLQMNSLKPEDTAVYYCAASPYRYWRMYSWGQGTQVTVSS | high polyreactivity
QVQLVESGGGLVQAGGSLRLSCAASGFTFRYYAMGWYRPAPGKEREFVAAISKSGGTTDYADSVKGRFTISRDNAKNTVYLQMSSLKPEDTAVYYCAKSGGRLWYVWRRYGYWGQGTQVTVSS | high polyreactivity
QVQLVESGGGLVQAGGSLRLSCAASGFTFRYYAMGWYRPAPGKERELVATISRGGSTNYADSVKGRFTISRDNAKNTVYLQMNSLKPEDTAVYYCNARIYKGYNYWGQGTQVTVSS | high polyreactivity
QVQLVESGGGLVQAGGSLRLSCAASGFTFRYYAMGWYRQAPGKEREFVAAISWDGGITYYADSVKGRFTISRDNAKNTVYLQMNSLKPEDTAVYYCAADVIWESDYWGQGTQVTVSS | high polyreactivity
QVQLVESGGGLVQAGGSLRLSCAASGFTFRYYAMGWYRQAPGKERELVAAISWSGGSTYYADSVKGRFTISRDNAKNTVYLQMNSLKPEDTAVYYCNAYAYYSHGVTTTYDYWGQGTQVTVSS | high polyreactivity
QVQLVESGGGLVQAGGSLRLSCAASGFTFRYYAMGWYRQAPGKERELVAAITSRGGSTYYADSVKGRFTISRDNAKNTVYLQMNSLKPEDTAVYYCAAETWRPSPYSRVSTYDYWGQGTQVTVSS | high polyreactivity
QVQLVESGGGLVQAGGSLRLSCAASGFTFRYYAMGWYRQAPGKERELVAGITWSGTNTYYADSVKGRFTISRDNAKNTVYLQMNSLKPEDTAVYYCITSPYLHYYYWGQGTQVTVSS | high polyreactivity
QVQLVESGGGLVQAGGSLRLSCAASGFTFRYYAMGWYRQAPRKERELVAAIPRNGGSTYYADTVKGRFTISRDNAKNTVYLQMKSLKPEDTAVYYCAAAYYRDSDRRFNYWGQGTQVTVSS | high polyreactivity
QVQLVESGGGLVQAGGSLRLSCAASGFTFRYYTMGWYRQAPGKERELVAAITASGSSTYYADSVKGRFTISRDNAKNTVYLQMNSLKPEDTAVYYSKALHFYGVGRYDHWGQGNQVTVSS | high polyreactivity
QVQLVESGGGLVQAGGSLRLSCAASGFTFRYYTMGWYRQAPGKERELVASISRRGGSTYYADSVKGRFTISRDNAKNTVFLQMNSLKPEDTAVYYCNTLSQVFASRAPKFDYWGQGTQVTVSS | high polyreactivity
QVQLVESGGGLVQAGGSLRLSCAASGFTFSAYAMGWYRQAPGKERELVAAITRSGGSTYYADSVKGRFTISRDNAKNTVYLQMNSLKPEDTAVYYCAKSDRPWWGYYYQFDYWGQGTQVTVSS | low polyreactivity
QVQLVESGGGLVQAGGSLRLSCAASGFTFSAYAMGWYRQAPGKERELVASITRSGGSTYYADSVKGRFTISRDNAKNTVYLQMNCLKPEDTAVFYCAKSDRPWWGYYYQFDYWGQGTQVSVSS | low polyreactivity
QVQLVESGGGLVQAGGSLRLSCAASGFTFSCYAMGWYRQAPGKEREFVAAISRRGAITSYADSVKGRFTISRDNAKNTVYLQMNSLKPEDTAVYYCNARYPHYYYSAYNYWGQGSQVTVSS | high polyreactivity
QVQLVESGGGLVQAGGSLRLSCAASGFTFSDNAMGWDRQAPGKERELVATISQSSGSTSYADSVKGRFTISRDYAKNTVYLQLNSLKPEDTAVYSCANRRLFYWGKGTQVTVSS | low polyreactivity
QVQLVESGGGLVQAGGSLRLSCAASGFTFSENTMGWYRQAPGKERELVADIDSGGSTYYADSVKGRFTISRDNAKNTVYLQMNSLKPEVTAVYYCAIDYHVVGGQTFLFEYDYWGQGTQVTVSS | low polyreactivity
QVQLVESGGGLVQAGGSLRLSCAASGFTFSFYAIGWYRQAPGKERELVAAINYSGGRTYYADSVKGRFTISRDNAKNTVYLQMNSLKPEDTAVYYCAVHIPSVSGVTDYYYWGQGSQVTVSS | high polyreactivity

Sequence | polyreactivity (PSR sort gate)
QVQLVESGGGLVQAGGSLRLSCAASGFTFSFYAMGRYRQAPGKEREYVAAITNSGGSTYYADSVKGRFTISRDNAKNTVYLQMNSLKPEDTGVYYCASKRAWPGYFTYYSWGQGTQVTVSS | high polyreactivity
QVQLVESGGGLVQAGGSLRLSCAASGFTFSGNAMGWYRQAPGKEREIVAAITARGGNTFYADSVKGRFTISRDNAKNTVYLQMNSLQPEETAVSYCKRGPYYSSSKYRFSAYHRAYWGQGNQVTVSS | high polyreactivity
QVQLVESGGGLVQAGGSLRLSCAASGFTFSGNVMGWYRQAPGKERELVAGISRSGSSTSYADSVKGRFTISRDNAKNTVYLQMNSLKPEDTAVYYCNKVKRSYYYVDTDYWGQGTQVTVSS | high polyreactivity
QVQLVESGGGLVQAGGSLRLSCAASGFTFSGYDIGWYRQAPGKERELVAGISSGGVSTTYADSVKGRFTISRDNAKNTVYLQMNSLKPEDTAVYYCNAEWTSFDWGQGTQVTVSS | low polyreactivity
QVQLVESGGGLVQAGGSLRLSCAASGFTFSINAMGWYRQAPGKERELVASITWSGGRTYYADSVKGRFTISRDNAKNTVYLQMNSLKPEDTAVYYCAARSYGTSTYDYWGQGTQETVSS | high polyreactivity
QVQLVESGGGLVQAGGSLRLSCAASGFTFSKYAMGWYRQAPGKERELVAGITWSGGRTYYADSVKGRFTISRDNAKNTVYLQLNSLIPDDSAVYYCAADPVWGRYIKYDYWGQGTQVTVSS | high polyreactivity
QVQLVESGGGLVQAGGSLRLSCAASGFTFSKYAMGWYRQAPGTERELVASIDDGGSTNYADSVKGRFTISRDNAKTTVYLQMNRLNPEDTAVYYCNASYPTGYWYYVIVQYDYWGQGTQVTVSS | low polyreactivity
QVQLVESGGGLVQAGGSLRLSCAASGFTFSKYDMGWYRQATGKERELVAAISRSAGSTYYADSVKGRFTISRDHAKNTVYLQMNSLKPEDTAVYYCARDNPRSPSGYNYWGQGTQVTVSS | high polyreactivity
QVQLVESGGGLVQAGGSLRLSCAASGFTFSKYVMGWYRQAPGKERELVAAITTSGGSTYYADSVKGRFTISRDNAKNTVYLQMNSLKPEDTAVYYCNARSLHTSEGDYWGQGTQVTVSS | low polyreactivity
QVQLVESGGGLVQAGGSLRLSCAASGFTFSLNTMGWYRQAPGKERELVAAINSGDSTYADSVKGRFTISRDNAKNTVYLQMNSLKPEDTAVYYCNADPDWWYPYNYWGLGTQVTVSS | low polyreactivity
QVQLVESGGGLVQAGGSLRLSCAASGFTFSQYAMGWYRQAPGKERELDAAISWNGGSTYYADSVKGRFTISRDNAKNTVYLQMNSLKPEDTAVYYCAAYGYYTKVTKYDYWGQGTQVTVSS | high polyreactivity
QVQLVESGGGLVQAGGSLRLSCAASGFTFSRNAMGWYRQAPGKERELVAAIDSGGSTDYADSVKGRFTISRDNAKNTVYLQLNSLKPEDTAVYYCAKASSATRYVQLRQDYDYWGQGTQVTVSS | low polyreactivity
QVQLVESGGGLVQAGGSLRLSCAASGFTFSRNTMGSSRQAPGKERELVARIPASGGSTYYADSVKGRFTISRDNAKNTVYLLMNSLNPEDTAVYYCAAVYRRYGASRYDYWGQGTQVTVSS | high polyreactivity
QVQLVESGGGLVQAGGSLRLSCAASGFTFSRYAMGWYRQAPGKEREFVAAISWSGGSTYYADSVKGRFTISRDNAKNTVYLQMNSLKPEDTAVYYCNAGSQLLASQTRYDYWGQGTQVTVSS | low polyreactivity
QVQLVESGGGLVQAGGSLRLSCAASGFTFSRYVMGWYRQAPGKERELVATISSDGDDTYYADSVKGRFTISRDNAKNTVYLQMNSLKPEDTAVYYCAAESYTYYADYGYGYWGQGTQVTVSS | high polyreactivity
